In article doi:10.1101/2024.05.25.595884 (bioRxiv, 2024):
Substitutions are numbered along the chain they refer to. Values belong to the binder of their own block, whether it stands above or below them.

Molecular target: full-length human HER2 with enhanced green fluorescent protein (eGFP) at the C-terminal end (Homo sapiens, UniProt P04626)
Experiment: SPID

B2: Trastuzumab scFab HCDR2/HCDR3 cross-combination clone H2/3_03 (Fab, V domains shown)
VH: EVQLVESGGGLVQPGGSLRLSCAASGFNIKDTYIHWVRQAPGKGLEWVARIKPANGYTRYADSVKGRFTISADTSKNTAYLQMNSLRAEDTAVYYCSRWRSIGFYAMDYWGQGTLVTVSS
VL: not shown
Kd: < 1 nM | fold enhancement in affinity compared to the original Trastuzumab: 6 fold

B3: Trastuzumab scFab HCDR2 variant IRPVRG (Fab, V domains shown)
VH: B2 VH with K52R, A54V, N55R, R100G, S101G, I102D
VL: not shown
Kd: 2.6 nM

B6: Trastuzumab scFab HCDR2/HCDR3 cross-combination clone H2/3_07 (Fab, V domains shown)
VH: B2 VH with K52R, A54V, N55R
VL: not shown
Kd: < 1 nM | fold enhancement in affinity compared to the original Trastuzumab: 6 fold

B7: Trastuzumab scFab HCDR3 variant clone H3_77 (Fab, V domains shown)
VH: B2 VH with K52Y, A54T, S101R, I102K
VL: not shown
binding result: binds

Second part, the binder after the results:

binding result: binds
B1: Trastuzumab scFab HCDR3 variant clone H3_72 (Fab, V domains shown)
VH: B2 VH with K52Y, A54T, S101G, I102K, Y105T
VL: not shown

binding result: binds
B4: Trastuzumab scFab HCDR3 variant clone H3_29 (Fab, V domains shown)
VH: B2 VH with K52Y, A54T
VL: not shown

binding result: binds
B5: Trastuzumab scFab HCDR3 variant clone H3_85 (Fab, V domains shown)
VH: B2 VH with K52Y, A54T, R100G, S101R, I102H, Y105N
VL: not shown
